Experimental data: patent US20250034212A1, “PEPTIDE” (PEPTIDREAM INC., priority 2021, published 2025)
Read-outs that look alike come from different tables or passages of the source. Starred links: 1 amine or outer side, 2 acyl side, 3 side chain; linkers in the order of their positions; H or OH if unused. Positions of bridges follow the written chain, without caps; N, C: chain ends. Non-standard residues stand in square brackets, D forms with d. *: point of attachment. KCOmeglumine = N6-(methyl-((2S,3R,4R,5R)-2,3,4,5,6-pentahydroxyhexyl)carbamoyl)-L-lysine, CN(C[C@H](O)[C@@H](O)[C@H](O)[C@H](O)CO)C(=O)NCCCC[C@H](N[*:1])C(=O)[*:2]; KCOpipzaa = N6-(4-(carboxymethyl)piperazine-1-carbonyl)-L-lysine, O=C(NCCCC[C@H](N[*:1])C(=O)[*:2])N1CCN(CC(=O)[*:3])CC1; CH3O(CH2CH2O)7C2H4CO = COCCOCCOCCOCCOCCOCCOCCOCCC(=O)*; 1Nal = N[C@@H](Cc1cccc2ccccc12)C(=O)O; Gly(NCH2CH2Ph) = O=C(O)CNCCc1ccccc1; 4Pal = N[C@@H](Cc1ccncc1)C(=O)O

What was measured:
[1] = molecular target: T1, recombinant human TGF-β1 (R&D systems) (human, UniProt P01137 279-390); assay: cell-based or functional assay
[2] = molecular target: T1, recombinant human TGF-β1 (R&D systems); assay: cell-based or functional assay; remark: listed apart in the source

T1 sequence (P01137 279-390 limits assumed): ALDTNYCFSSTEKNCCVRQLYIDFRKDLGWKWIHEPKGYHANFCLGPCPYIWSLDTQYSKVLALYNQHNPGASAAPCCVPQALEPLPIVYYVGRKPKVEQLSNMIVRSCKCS

Row | Binder | SBE reporter % inhibition, peptide 0.062 nM [1] [%] | SBE reporter % inhibition, peptide 0.185 nM [1] [%] | SBE reporter % inhibition, peptide 0.56 nM [1] [%] | SBE reporter % inhibition, peptide 1.7 nM [1] [%] | SBE reporter % inhibition, peptide 5.0 nM [1] [%] | SBE reporter % inhibition, peptide 15.0 nM [1] [%] | SBE reporter % inhibition, peptide 0.062 nM [2] [%] | SBE reporter % inhibition, peptide 0.185 nM [2] [%] | SBE reporter % inhibition, peptide 0.56 nM [2] [%] | SBE reporter % inhibition, peptide 1.7 nM [2] [%] | SBE reporter % inhibition, peptide 5.0 nM [2] [%] | SBE reporter % inhibition, peptide 15.0 nM [2] [%]
1 | {CH2CO}-F[1Nal]V[KCOmeglumine]NV[4Pal]DE[Gly(NCH2CH2Ph)]V[1Nal]YH[KCOpipzaa]CG-NH2 (thioether N-16; SMILES CC(C)[C@@H]1NC(=O)CN(CCc2ccccc2)C(=O)[C@H](CCC(=O)O)NC(=O)[C@H](CC(=O)O)NC(=O)[C@H](Cc2ccncc2)NC(=O)[C@H](C(C)C)NC(=O)[C@H](CC(N)=O)NC(=O)[C@H](CCCCNC(=O)N(C)C[C@H](O)[C@@H](O)[C@H](O)[C@H](O)CO)NC(=O)[C@H](C(C)C)NC(=O)[C@H](Cc2cccc3ccccc23)NC(=O)[C@H](Cc2ccccc2)NC(=O)CSC[C@@H](C(=O)NCC(N)=O)NC(=O)[C@H](CCCCNC(=O)N2CCN(CC(=O)O)CC2)NC(=O)[C@H](Cc2c[nH]cn2)NC(=O)[C@H](Cc2ccc(O)cc2)NC(=O)[C@H](Cc2cccc3ccccc23)NC1=O) [TGFb1_024] | 5.79 | 16.6 | 45 | 80.2 | 95.5 | 98.9 | – | – | – | – | – | –
2 | {CH2CO}-F[1Nal]V[KCOmeglumine]NV[4Pal]D[KCOpipzaa][Gly(NCH2CH2Ph)]V[1Nal]YH[KCOpipzaa]CG-NH2 (thioether N-16; SMILES CC(C)[C@@H]1NC(=O)CN(CCc2ccccc2)C(=O)[C@H](CCCCNC(=O)N2CCN(CC(=O)O)CC2)NC(=O)[C@H](CC(=O)O)NC(=O)[C@H](Cc2ccncc2)NC(=O)[C@H](C(C)C)NC(=O)[C@H](CC(N)=O)NC(=O)[C@H](CCCCNC(=O)N(C)C[C@H](O)[C@@H](O)[C@H](O)[C@H](O)CO)NC(=O)[C@H](C(C)C)NC(=O)[C@H](Cc2cccc3ccccc23)NC(=O)[C@H](Cc2ccccc2)NC(=O)CSC[C@@H](C(=O)NCC(N)=O)NC(=O)[C@H](CCCCNC(=O)N2CCN(CC(=O)O)CC2)NC(=O)[C@H](Cc2c[nH]cn2)NC(=O)[C@H](Cc2ccc(O)cc2)NC(=O)[C@H](Cc2cccc3ccccc23)NC1=O) [TGFb1_025] | 4.81 | 18.4 | 43.3 | 77.5 | 94.7 | 99.4 | – | – | – | – | – | –
3 | {CH2CO}-F[1Nal]V[KCOmeglumine]NV[4Pal]D[KCOmeglumine][Gly(NCH2CH2Ph)]V[1Nal]YH[KCOpipzaa]CG-NH2 (thioether N-16; SMILES CC(C)[C@@H]1NC(=O)CN(CCc2ccccc2)C(=O)[C@H](CCCCNC(=O)N(C)C[C@H](O)[C@@H](O)[C@H](O)[C@H](O)CO)NC(=O)[C@H](CC(=O)O)NC(=O)[C@H](Cc2ccncc2)NC(=O)[C@H](C(C)C)NC(=O)[C@H](CC(N)=O)NC(=O)[C@H](CCCCNC(=O)N(C)C[C@H](O)[C@@H](O)[C@H](O)[C@H](O)CO)NC(=O)[C@H](C(C)C)NC(=O)[C@H](Cc2cccc3ccccc23)NC(=O)[C@H](Cc2ccccc2)NC(=O)CSC[C@@H](C(=O)NCC(N)=O)NC(=O)[C@H](CCCCNC(=O)N2CCN(CC(=O)O)CC2)NC(=O)[C@H](Cc2c[nH]cn2)NC(=O)[C@H](Cc2ccc(O)cc2)NC(=O)[C@H](Cc2cccc3ccccc23)NC1=O) [TGFb1_026] | 6.85 | 17.8 | 41.4 | 74.3 | 93.4 | 98 | – | – | – | – | – | –
4 | {CH2CO}-F[1Nal]V[KCOmeglumine]NV[4Pal]D[KCOmeglumine][Gly(NCH2CH2Ph)]V[1Nal]YHECG-NH2 (thioether N-16; SMILES CC(C)[C@@H]1NC(=O)CN(CCc2ccccc2)C(=O)[C@H](CCCCNC(=O)N(C)C[C@H](O)[C@@H](O)[C@H](O)[C@H](O)CO)NC(=O)[C@H](CC(=O)O)NC(=O)[C@H](Cc2ccncc2)NC(=O)[C@H](C(C)C)NC(=O)[C@H](CC(N)=O)NC(=O)[C@H](CCCCNC(=O)N(C)C[C@H](O)[C@@H](O)[C@H](O)[C@H](O)CO)NC(=O)[C@H](C(C)C)NC(=O)[C@H](Cc2cccc3ccccc23)NC(=O)[C@H](Cc2ccccc2)NC(=O)CSC[C@@H](C(=O)NCC(N)=O)NC(=O)[C@H](CCC(=O)O)NC(=O)[C@H](Cc2c[nH]cn2)NC(=O)[C@H](Cc2ccc(O)cc2)NC(=O)[C@H](Cc2cccc3ccccc23)NC1=O) [TGFb1_030] | 10.9 | 14.3 | 29.9 | 52.5 | 80.8 | 95.2 | – | – | – | – | – | –
5 | {CH2CO}-F[1Nal]V[KCOpipzaa]NV[4Pal]DD[Gly(NCH2CH2Ph)]V[1Nal]YH[KCOpipzaa]CG-NH2 (thioether N-16; SMILES CC(C)[C@@H]1NC(=O)CN(CCc2ccccc2)C(=O)[C@H](CC(=O)O)NC(=O)[C@H](CC(=O)O)NC(=O)[C@H](Cc2ccncc2)NC(=O)[C@H](C(C)C)NC(=O)[C@H](CC(N)=O)NC(=O)[C@H](CCCCNC(=O)N2CCN(CC(=O)O)CC2)NC(=O)[C@H](C(C)C)NC(=O)[C@H](Cc2cccc3ccccc23)NC(=O)[C@H](Cc2ccccc2)NC(=O)CSC[C@@H](C(=O)NCC(N)=O)NC(=O)[C@H](CCCCNC(=O)N2CCN(CC(=O)O)CC2)NC(=O)[C@H](Cc2c[nH]cn2)NC(=O)[C@H](Cc2ccc(O)cc2)NC(=O)[C@H](Cc2cccc3ccccc23)NC1=O) [TGFb1_019] | 5.21 | 11.3 | 30.2 | 61.6 | 87.8 | 96.4 | – | – | – | – | – | –
6 | {CH2CO}-F[1Nal]V[KCOmeglumine]NV[4Pal]DD[Gly(NCH2CH2Ph)]V[1Nal]YH[KCOpipzaa]CG-NH2 (thioether N-16; SMILES CC(C)[C@@H]1NC(=O)CN(CCc2ccccc2)C(=O)[C@H](CC(=O)O)NC(=O)[C@H](CC(=O)O)NC(=O)[C@H](Cc2ccncc2)NC(=O)[C@H](C(C)C)NC(=O)[C@H](CC(N)=O)NC(=O)[C@H](CCCCNC(=O)N(C)C[C@H](O)[C@@H](O)[C@H](O)[C@H](O)CO)NC(=O)[C@H](C(C)C)NC(=O)[C@H](Cc2cccc3ccccc23)NC(=O)[C@H](Cc2ccccc2)NC(=O)CSC[C@@H](C(=O)NCC(N)=O)NC(=O)[C@H](CCCCNC(=O)N2CCN(CC(=O)O)CC2)NC(=O)[C@H](Cc2c[nH]cn2)NC(=O)[C@H](Cc2ccc(O)cc2)NC(=O)[C@H](Cc2cccc3ccccc23)NC1=O) [TGFb1_020] | 8.5 | 15.8 | 36.3 | 70.4 | 89.3 | 96.9 | – | – | – | – | – | –
7 | {CH2CO}-F[1Nal]VVNV[4Pal]D[KCOpipzaa][Gly(NCH2CH2Ph)]V[1Nal]YH[KCOpipzaa]CG-NH2 (thioether N-16; SMILES CC(C)[C@@H]1NC(=O)CN(CCc2ccccc2)C(=O)[C@H](CCCCNC(=O)N2CCN(CC(=O)O)CC2)NC(=O)[C@H](CC(=O)O)NC(=O)[C@H](Cc2ccncc2)NC(=O)[C@H](C(C)C)NC(=O)[C@H](CC(N)=O)NC(=O)[C@H](C(C)C)NC(=O)[C@H](C(C)C)NC(=O)[C@H](Cc2cccc3ccccc23)NC(=O)[C@H](Cc2ccccc2)NC(=O)CSC[C@@H](C(=O)NCC(N)=O)NC(=O)[C@H](CCCCNC(=O)N2CCN(CC(=O)O)CC2)NC(=O)[C@H](Cc2c[nH]cn2)NC(=O)[C@H](Cc2ccc(O)cc2)NC(=O)[C@H](Cc2cccc3ccccc23)NC1=O) [TGFb1_022] | 6.49 | 20.8 | 53.8 | 85.2 | 97.1 | 99.5 | – | – | – | – | – | –
8 | {CH2CO}-F[1Nal]VVNV[4Pal]DD[Gly(NCH2CH2Ph)]V[1Nal]YH[KCOpipzaa]CGK(CH3O(CH2CH2O)7C2H4CO)-NH2 (thioether N-16; SMILES COCCOCCOCCOCCOCCOCCOCCOCCC(=O)NCCCC[C@H](NC(=O)CNC(=O)[C@@H]1CSCC(=O)N[C@@H](Cc2ccccc2)C(=O)N[C@@H](Cc2cccc3ccccc23)C(=O)N[C@@H](C(C)C)C(=O)N[C@@H](C(C)C)C(=O)N[C@@H](CC(N)=O)C(=O)N[C@@H](C(C)C)C(=O)N[C@@H](Cc2ccncc2)C(=O)N[C@@H](CC(=O)O)C(=O)N[C@@H](CC(=O)O)C(=O)N(CCc2ccccc2)CC(=O)N[C@@H](C(C)C)C(=O)N[C@@H](Cc2cccc3ccccc23)C(=O)N[C@@H](Cc2ccc(O)cc2)C(=O)N[C@@H](Cc2c[nH]cn2)C(=O)N[C@@H](CCCCNC(=O)N2CCN(CC(=O)O)CC2)C(=O)N1)C(N)=O, cyclic peptide; linker G K(MePEG8c) at the C-terminus) [TGFb1_031] | – | – | – | – | – | – | 9.29 | 20.1 | 51.9 | 84.9 | 96.7 | 99.1
